The values below come from patent US20250064979A1.

For the test, the target named is Gag-P3-pol (P3 coiled-coil peptide fused to MMLV Gag-pol) (Moloney murine leukemia virus) (UniProt P03332). Kind of test: cell-based or functional assay.

For the substance “Gag-PE fusion with P4 peptide fused to its C-terminus (construct 1 of FIG. 44A) (from UniProt P03332 1-538)”, the editing efficiency of PE VLPs amounted to 2 fold.
